Sequences and labels used below:
B1: POMT2 (parent)
chain: LRGGGQVLLGWTLHYFPFFLMGRV
B2: SLC19A2 (parent)
chain: FASLRPSEPFLTPYLLGPDKNLTE

Protein stability index data for 94 variants are collected here from the supplement of paper PMC10567573.
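Also: lentivirally expressed fusions sorted by FACS into six bins by GFP to DsRed ratio, PSI derived from sequencing read proportions per bin multiplied by bin number.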

Variants of B1 are the subject of the first data set. Description: protein stability index of a GFP-peptide fusion (GPS, HEK-293T) (PSI 1-6); higher = more stable. The settings on record: c terminus: a fixed tail appended.
LRGGGQVLLGWTLHYFPFFSMGRV: the protein stability index came to 1.7. As to LRGGGQVLLGWTLHYFPNFLMGRV, the protein stability index was 2.04.

For the variant LRGGGQVLLGWTLHYFPFFLSGRV, the protein stability index came to 2.79. Take LRGGGQVLLGWTLHYFPFFLAGRV: the protein stability index came out at 3.45. On the same count and under the same terms, the figure for LRGGGQVLLGWTLHYFPFFLKGRV is 2.16.

On to LRGGGQVLLGWTLHYFPFNLMGRV, for which the protein stability index came out at 2.04.

As for LRGGGQVLLGWTLHYFPFALMGRV, the protein stability index worked out at 2.89. On the same count and under the same terms, the figure for LQGGGQVLLGWTLHYFPFFLMGRV is 1.79; for LLGGGQVLLGWTLHYFPFFLMGRV it is 2.63. The same measure, in the same setting: the figure for LYGGGQVLLGWTLHYFPFFLMGRV is 2.82. LRGGGDVLLGWTLHYFPFFLMGRV: the protein stability index stood at 1.69.

Consider LRGGGKVLLGWTLHYFPFFLMGRV, for which the protein stability index was 2.02. The same measure, in the same setting: to LRYGGQVLLGWTLHYFPFFLMGRV belongs 4.15; to LRIGGQVLLGWTLHYFPFFLMGRV, 2.59; to LRRGGQVLLGWTLHYFPFFLMGRV, 2.12. In the case of LRNGGQVLLGWTLHYFPFFLMGRV, the protein stability index worked out at 2.48. For LRMGGQVLLGWTLHYFPFFLMGRV, the protein stability index amounted to 1.82. On to LRWGGQVLLGWTLHYFPFFLMGRV, for which the protein stability index came out at 5.12. The same measure, in the same setting: to LRGGGQVLLGWTCHYFPFFLMGRV belongs 1.51; to LRGGGQVLLGWTWHYFPFFLMGRV, 3.5; to LRGGGQVLLGWTPHYFPFFLMGRV, 2.64.

For LRGGGQVLLGWTSHYFPFFLMGRV, the protein stability index turned out to be 3.02.

Regarding LRGGGQTLLGWTLHYFPFFLMGRV, the protein stability index stood at 1.32.

On to LRGGGQMLLGWTLHYFPFFLMGRV, for which the protein stability index was 2.07. Still for that read-out and setting: the figure for LRGGGQGLLGWTLHYFPFFLMGRV is 3.97; for LRGGGQKLLGWTLHYFPFFLMGRV it is 4.17. The same measure, in the same setting: to LRGGGQVLLGWTLHYFPFFLMGIV belongs 4.29; to LRGGGQVLLGWTLHYFPFFLMGDV, 1.88; to LRGGGQVLLGWTLHYFPFFLMGYV, 1.9. The same measure, in the same setting: to LRGGGQVALGWTLHYFPFFLMGRV belongs 2.97; to ERGGGQVLLGWTLHYFPFFLMGRV, 2.74. For the variant ARGGGQVLLGWTLHYFPFFLMGRV, the protein stability index is 3.17. Still for that read-out and setting: the figure for SRGGGQVLLGWTLHYFPFFLMGRV is 2.23. Same read-out and setting: to FRGGGQVLLGWTLHYFPFFLMGRV belongs 3.06; to DRGGGQVLLGWTLHYFPFFLMGRV, 2.89; to GRGGGQVLLGWTLHYFPFFLMGRV, 2.56.

With LRGGGQVLLDWTLHYFPFFLMGRV, the protein stability index is 3.44. Consider LRGGGQVLLSWTLHYFPFFLMGRV, for which the protein stability index came to 3.85. Still for that read-out and setting: to LRGGGQVLLPWTLHYFPFFLMGRV belongs 3.23; to LRGGGQVLLFWTLHYFPFFLMGRV, 3.45; to LRGGGQVLLQWTLHYFPFFLMGRV, 3.64. On to LRGGGQVLLTWTLHYFPFFLMGRV, for which the protein stability index is 2.89. Still for that read-out and setting: to LRGGGQVLHGWTLHYFPFFLMGRV belongs 1.91; to LRGGGQVLQGWTLHYFPFFLMGRV, 1.61; to LRGGGQVLEGWTLHYFPFFLMGRV, 1.89. Regarding LRGGGQVLFGWTLHYFPFFLMGRV, the protein stability index was found to be 2.91.

As to LRGMGQVLLGWTLHYFPFFLMGRV, the protein stability index is 3.71. Same read-out and setting: the figure for LRGWGQVLLGWTLHYFPFFLMGRV is 1.47. Still for that read-out and setting: the figure for LRGFGQVLLGWTLHYFPFFLMGRV is 1.41; for LRGRGQVLLGWTLHYFPFFLMGRV it is 1.38. For LRGDGQVLLGWTLHYFPFFLMGRV, the protein stability index came out at 2.16. Same read-out and setting: the figure for LRGGGQVLLGWHLHYFPFFLMGRV is 2.35.

As to LRGGGQVLLGWLLHYFPFFLMGRV, the protein stability index amounted to 1.93.

LRGGGQVLLGWYLHYFPFFLMGRV: the protein stability index was 2.7. Consider LRGGGQVLLGWSLHYFPFFLMGRV, for which the protein stability index stood at 2.1.

As for LRGGTQVLLGWTLHYFPFFLMGRV, the protein stability index is 2.95. On the same count and under the same terms, the figure for LRGGIQVLLGWTLHYFPFFLMGRV is 4.58; for LRGGEQVLLGWTLHYFPFFLMGRV it is 3.02; for LRGGGQVLLGWTLHYFPFFLMARV it is 3.58. Take LRGGGQVLLGWTLHYFPFFLMLRV: the protein stability index amounted to 3.83. Turning to LRGGGQVLLGWTLHYFPFFLMQRV, the protein stability index worked out at 1.28. For LRGGGQVLLGWTLHYFRFFLMGRV, the protein stability index was determined as 3.18. On to LRGGGQVLLGWTLHYFFFFLMGRV, for which the protein stability index is 2.59. Same read-out and setting: to LRGGGQVLLGWTLHYFVFFLMGRV belongs 2.54; to LRGGGQVLLGWTLHYFWFFLMGRV, 3.06. Take LRGGGQVLLGWTLHYFKFFLMGRV: the protein stability index stood at 2.55. Consider LRGGGQVLLGWTLHYFIFFLMGRV, for which the protein stability index turned out to be 2.09. LRGGGQVLLGWTLHYFQFFLMGRV: the protein stability index was 4.16. For the variant LRGGGQVLLGWTLHDFPFFLMGRV, the protein stability index came out at 1.72.

Consider LRGGGQVLLGWTLHKFPFFLMGRV, for which the protein stability index came to 2.92.

As to LRGGGQVLLGWTLHRFPFFLMGRV, the protein stability index came out at 2.02. Same read-out and setting: the figure for LRGGGQVLLGHTLHYFPFFLMGRV is 2.1; for LRGGGQVLLGNTLHYFPFFLMGRV it is 4.22. Regarding LRGGGQVLLGRTLHYFPFFLMGRV, the protein stability index was 2.67.

For the variant LRGGGQVLLGKTLHYFPFFLMGRV, the protein stability index was determined as 3.25.

Consider LRGGGQVLLGSTLHYFPFFLMGRV, for which the protein stability index is 1.38. Same read-out and setting: the figure for LRGGGQVLLGCTLHYFPFFLMGRV is 3.48; for LRGGGQVLLGWTLHYHPFFLMGRV it is 3.2; for LRGGGQVLLGWTLHYGPFFLMGRV it is 3.06. On to LRGGGQVLLGWTLHYFPFFLMGRC, for which the protein stability index came to 1.83.

LRGGGQVLLGWTLHYFPFFLMGRI: the protein stability index turned out to be 2.03. Regarding LRGGGQVLLGWTLHYFPFFLMGRQ, the protein stability index was determined as 2.04. Still for that read-out and setting: the figure for LRGGGQVLLGWTLHYFPFFLMGRY is 3.27; for LRGGGQVLLGWTLHYFPFFLMGRA it is 1.72. In the case of LRGGGQVLLGWTLFYFPFFLMGRV, the protein stability index is 3.28. As to LRGGGQVLLGWTLYYFPFFLMGRV, the protein stability index was determined as 3.36. The same measure, in the same setting: to LRGGGQVLLGWTLDYFPFFLMGRV belongs 4.14.

The variants in another data set derive from B2. The data set is described as above. The note with it: c terminus: a fixed tail appended.
For FMSLRPSEPFLTPYLLGPDKNLTE, the protein stability index was 2.36. On the same count and under the same terms, to FLSLRPSEPFLTPYLLGPDKNLTE belongs 2.04; to FYSLRPSEPFLTPYLLGPDKNLTE, 2.05; to FSSLRPSEPFLTPYLLGPDKNLTE, 3.02. On the same count and under the same terms, to FWSLRPSEPFLTPYLLGPDKNLTE belongs 2.21. For FTSLRPSEPFLTPYLLGPDKNLTE, the protein stability index turned out to be 1.97. On the same count and under the same terms, the figure for FVSLRPSEPFLTPYLLGPDKNLTE is 2.5.
